The target in one assay is NBD P9 PAI-1 (UniProt P05121).
The target of assay [1] is wild-type PAI-1 (human) (UniProt P05121).
Assay [2] has the same target. This is another data set of the same source.
For assay [3] the target is unchanged. This is another data set of the same source.

Where only a bound is given, the exact number is not on record here.

Consider “two-chain tissue-type plasminogen activator (enzyme)”, for which, in the assay with NBD P9 PAI-1, the Km ([PA] at half-saturation) of RCL insertion, no Nb, −Vn came to 0.22 µM; the Km of RCL insertion, with Nb42, −Vn turned out to be 1.2 µM; the Km of RCL insertion, with Nb42 and Nb64, −Vn turned out to be 1.4 µM; the Km of RCL insertion, with Nb64, −Vn was 0.17 µM. Besides, in the assay with NBD P9 PAI-1, the klim of RCL insertion (stopped-flow NBD fluorescence), no Nb, −Vn came to 1.5 s⁻¹; the klim of RCL insertion, with Nb42 and Nb64, −Vn was determined as 5.2 s⁻¹; the klim of RCL insertion, with Nb64, −Vn came to 1.4 s⁻¹; the klim/Km of RCL insertion, with Nb42 and Nb64, +Vn ((μmol/ L)^−1 s^−1) is 1.1. In the assay with wild-type PAI-1 (human) [1], the SI by SDS-PAGE, with Nb42, +Vn is 1; the SI by SDS-PAGE, with Nb42, −Vn turned out to be 1.1; the SI by SDS-PAGE, with Nb42 and Nb64, +Vn was > 30; the SI by SDS-PAGE, with Nb42 and Nb64, −Vn is 16.9. In the assay with wild-type PAI-1 (human) [1], the SI by SDS-PAGE, with Nb64, +Vn was > 30; the SI by SDS-PAGE, with Nb64, −Vn turned out to be 15.6; the stoichiometry of inhibition (SI) by SDS-PAGE, no Nb, −Vn came out at 1.1.

In the case of “two-chain urokinase-type plasminogen activator (enzyme)”, in the assay with NBD P9 PAI-1, the klim/Km of RCL insertion, no Nb, −Vn ((μmol/ L)^−1 s^−1) stood at 11.3 and the klim/Km of RCL insertion, with Nb64, −Vn ((μmol/ L)^−1 s^−1) amounted to 14.7. In the assay with wild-type PAI-1 (human) [1], the SI by SDS-PAGE, no Nb, −Vn stood at 1.1; the SI by SDS-PAGE, with Nb42, +Vn was determined as 1.1; the SI by SDS-PAGE, with Nb42, −Vn amounted to 1.2; the SI by SDS-PAGE, with Nb42 and Nb64, −Vn worked out at 12.4. In the assay with wild-type PAI-1 (human) [1], this molecule came in with an SI by SDS-PAGE, with Nb64, +Vn of 10 and an SI by SDS-PAGE, with Nb64, −Vn of 27. In the assay with wild-type PAI-1 (human) [2], this molecule showed a percent substrate reaction by SDS-PAGE, with Nb64, +Vn of 90% and a percent substrate reaction by SDS-PAGE, with Nb64, −Vn of 96%.

B1: VHH-2g-42 (VHH)
VHH: QVQLVESGGGLVQPGGRLRLSCAASGFTFRTYAMQWYRQSPGTERELVAAISNIGGVTDYGDSVKGRFTISRDNAKTTVYLEMNSLKPEDTATYYCSAVRLPQRYWGRGTQVTVSS
Take B1: the IC50 of inhibition of PAI-1-wt activity, PAI-1/tPA, −Vn with wild-type PAI-1 (human) [3] turned out to be 87 nM.

B2: VHH-2w-64 (VHH)
VHH: QVQLVESGGGLVQAGGSLRLSCAASGFTFDDYSIAWFRQAPGKEREGVSCISSSDGSAYYADSVKGRFTISSDNAKNTVYLQMNSLKPEDTAVYYCAAVWARVCRNPYDYWGQGTQVTVSS
In the assay with wild-type PAI-1 (human) [3], B2 had an IC50 of inhibition of PAI-1-wt activity, PAI-1/tPA, −Vn of 16 nM; an IC50 of inhibition of PAI-1-wt activity, PAI-1/uPA, −Vn of 4.6 nM; an IC50 of inhibition of the activity of Vn-bound PAI-1-wt, PAI-1/tPA of 2.8 nM; an IC50 of inhibition of the activity of Vn-bound PAI-1-wt, PAI-1/uPA of 2 nM. In the assay with wild-type PAI-1 (human) [3], the maximum inhibition of PAI-1-wt activity, PAI-1/uPA, −Vn stood at 88% and the maximum inhibition of the activity of Vn-bound PAI-1-wt, PAI-1/tPA amounted to 93%.

The values above are taken from paper PMC8855783.
